According to publication PMC5087089, “Reconstituted B cell receptor signaling reveals carbohydrate-dependent mode of activation” (Scientific Reports, 2016):

Biological target: T1, wildtype (WT) HA trimer from A/New Caledonia/20/1999 (H1 1999 NC), soluble trimeric format (influenza A virus A/New …, UniProt Q6WG00)
T1 construct: also called wildtype HA
Assay: ELISA
Details: both partners purified

B1: CH65, HA receptor binding site specific monoclonal antibody (antibody, V domains shown)
VH: EVQLVQSGAEVKKPGASVKVSCKASGYTFTDYHINWVRQAPGQGLEWMGWIHPNSGDTNYAQKFQGWVTMTRDTAISTAYMEVNGLKSDDTAVYYCARGGLEPRSVDYYYYGMDVWGQGTTVTVSS
VL: SVLTQPPSVSVAPGQTARITCGGNDIGRKSVHWNQQKPGQAPVLVVCYDSDRPSGIPERFSGSNSGNTATLTISRVEAGDEADYYCQVWDSSSDHVIFGGGTKLTVL
B1: binds.
